According to paper PMC10053881 (Pharmaceutics, 2023):
Bridge positions count the residues as written; N and C are the ends. Square brackets hold non-standard residues; d marks the D form. Peptide text beside a SMILES is read from it. * marks the point of attachment. DOTA = O=C(O)CN1CCN(CC(=O)O)CCN(CC(=O)*)CCN(CC(=O)O)CC1; dPhe(4-NHCONH2) = NC(=O)Nc1ccc(C[C@@H](N)C(=O)O)cc1; Phe(4-Cl) = N[C@@H](Cc1ccc(Cl)cc1)C(=O)O

Assay: Biodistribution in SCID mice bearing twin HEK293-SST2R and wtHEK293 tumors
Details: male, mouse, iv, total radioactivity, mean ± sd, n = 4; for tissue uptake at 4 h: 4 h pi; for tissue uptake at 24 h: 24 h pi; for tissue uptake at 48 h: 48 h pi
Procedure: Freshly harvested HEK293-SST2R cells (1.2 × 10^7cells) and wtHEK293 cells (0.6 × 10^7 cells) were suspended in physiological saline (150 μL) and inoculated in the right and left flanks, respectively, of 43 male SCID mice (23.1 ± 1.6 g body weight, six weeks of age on arrival day; NCSR “Demokritos” Animal House, Athens, Greece). Mice were kept under aseptic conditions for 12–15 days and until palpable tumors (300–600 mg) were grown at the inoculation sites. […] Animals were euthanized at 4 and 24 h pi and immediately dissected. Blood samples, organs of interest and tumors were rapidly collected, weighed and counted in the gamma counter. […] Animals were euthanized at 4, 24 and 48 h pi and the procedure described above was followed. Biodistribution data were calculated with the aid of suitable standards of the administered dose as percent of the injected activity per gram tissue (%IA/g) with excel software (Microsoft Corporation, Redmond, Washington, […], USA). Results were provided as average ± sd values, n = 4 per time point, via the PRISM^TM 6.0 GraphPad software (San Diego, CA, USA). Statistical analysis was performed as previously described.

[1] = in vivo, Tu+ (HEK293-SST2R tumor) uptake, In-111 radioligands, iv 20–25 pmol
[2] = kidneys, Kidneys uptake, In-111 radioligands, iv 20–25 pmol
[3] = liver, Liver uptake, In-111 radioligands, iv 20–25 pmol
[4] = lungs, Lungs uptake, In-111 radioligands, iv 20–25 pmol
[5] = muscle, Muscle uptake, In-111 radioligands, iv 20–25 pmol
[6] = pancreas, Pancreas uptake, In-111 radioligands, iv 20–25 pmol
[7] = spleen, Spleen uptake, In-111 radioligands, iv 20–25 pmol
[8] = stomach, Stomach uptake, In-111 radioligands, iv 20–25 pmol
[9] = blood, 40 pmol, Blood uptake, Lu-177 radioligands, iv 40 pmol
[10] = femur, 40 pmol, Femur uptake, Lu-177 radioligands, iv 40 pmol
[11] = in vivo, 40 pmol, Tu+ (HEK293-SST2R tumor) uptake, Lu-177 radioligands, iv 40 pmol
[12] = in vivo, 40 pmol, Tu- (wtHEK293 tumor) uptake, Lu-177 radioligands, iv 40 pmol
[13] = intestines, 40 pmol, Intestines uptake, Lu-177 radioligands, iv 40 pmol
[14] = kidneys, 40 pmol, Kidneys uptake, Lu-177 radioligands, iv 40 pmol
[15] = liver, 40 pmol, Liver uptake, Lu-177 radioligands, iv 40 pmol
[16] = lungs, 40 pmol, Lungs uptake, Lu-177 radioligands, iv 40 pmol
[17] = muscle, 40 pmol, Muscle uptake, Lu-177 radioligands, iv 40 pmol
[18] = pancreas, 40 pmol, Pancreas uptake, Lu-177 radioligands, iv 40 pmol
[19] = spleen, 40 pmol, Spleen uptake, Lu-177 radioligands, iv 40 pmol
[20] = stomach, 40 pmol, Stomach uptake, Lu-177 radioligands, iv 40 pmol

## C[C@@H](O)[C@@H]1NC(=O)[C@H](CCCCN)NC(=O)[C@@H](Cc2ccc(NC(N)=O)cc2)NC(=O)[C@H](Cc2ccc(O)cc2)NC(=O)[C@H](NC(=O)[C@H](Cc2ccc(Cl)cc2)NC(=O)CN2CCN(CC(=O)O)CCN(CC(=O)O)CCN(CC(=O)O)CC2)CSSC[C@@H](C(=O)N[C@H](Cc2ccc(O)cc2)C(N)=O)NC1=O [[^111In]In-DOTA-LM3, metal not drawn] ({DOTA}-[Phe(4-Cl)][dC]Y[dPhe(4-NHCONH2)]KTC[dY]-NH2; disulfide 2-7)
[1]
  tissue uptake at 4 h: 36.4 ± 2.05 %ID/g
  tissue uptake at 24 h: 20.9 ± 3.02 %ID/g
In vivo, Tu- (wtHEK293 tumor) uptake, In-111 radioligands, iv 20–25 pmol
  tissue uptake at 24 h: 0.29 ± 0.01 %ID/g
[2]
  tissue uptake at 4 h: 15.4 ± 0.58 %ID/g
  tissue uptake at 24 h: 4.25 ± 0.77 %ID/g
[3]
  tissue uptake at 4 h: 2.04 ± 0.25 %ID/g
  tissue uptake at 24 h: 0.58 ± 0.06 %ID/g
[4]
  tissue uptake at 4 h: 3.14 ± 0.48 %ID/g
  tissue uptake at 24 h: 0.59 ± 0.12 %ID/g
[5]
  tissue uptake at 4 h: 0.08 ± 0.01 %ID/g
  tissue uptake at 24 h: 0.04 ± 0.02 %ID/g
[6]
  tissue uptake at 4 h: 9.94 ± 0.79 %ID/g
  tissue uptake at 24 h: 1.2 ± 0.14 %ID/g
[7]
  tissue uptake at 4 h: 0.46 ± 0.05 %ID/g
  tissue uptake at 24 h: 0.27 ± 0.03 %ID/g
[8]
  tissue uptake at 4 h: 0.8 ± 0.17 %ID/g
  tissue uptake at 24 h: 0.5 ± 0.09 %ID/g

## C[C@@H](O)[C@@H]1NC(=O)[C@H](CCCCN)NC(=O)[C@@H](Cc2ccc(NC(N)=O)cc2)NC(=O)[C@H](Cc2ccc(O)cc2)NC(=O)[C@H](NC(=O)[C@H](Cc2ccc(Cl)cc2)NC(=O)CN2CCN(CC(=O)O)CCN(CC(=O)O)CCN(CC(=O)O)CC2)CSSC[C@@H](C(=O)N[C@H](Cc2ccc(O)cc2)C(N)=O)NC1=O [[^177Lu]Lu-DOTA-LM3, metal not drawn] ({DOTA}-[Phe(4-Cl)][dC]Y[dPhe(4-NHCONH2)]KTC[dY]-NH2; disulfide 2-7)
[9]
  tissue uptake at 24 h: 0.07 %ID/g
  tissue uptake at 48 h: 0.06 ± 0.01 %ID/g
[10]
  tissue uptake at 4 h: 1.56 ± 0.24 %ID/g
  tissue uptake at 24 h: 1.38 ± 0.18 %ID/g
  tissue uptake at 48 h: 0.88 ± 0.05 %ID/g
heart, 40 pmol, Heart uptake, Lu-177 radioligands, iv 40 pmol
  tissue uptake at 48 h: 0.13 ± 0.02 %ID/g
[11]
  tissue uptake at 4 h: 45.5 ± 1.66 %ID/g
  tissue uptake at 24 h: 37.6 ± 3.42 %ID/g
  tissue uptake at 48 h: 18.8 ± 0.88 %ID/g
[12]
  tissue uptake at 4 h: 1.66 ± 0.14 %ID/g
  tissue uptake at 24 h: 1.53 ± 0.15 %ID/g
  tissue uptake at 48 h: 0.75 ± 0.08 %ID/g
[13]
  tissue uptake at 4 h: 2.71 ± 0.18 %ID/g
  tissue uptake at 24 h: 1.52 ± 0.21 %ID/g
  tissue uptake at 48 h: 0.78 ± 0.09 %ID/g
[14]
  tissue uptake at 4 h: 11.5 ± 0.26 %ID/g
  tissue uptake at 24 h: 5.14 ± 0.92 %ID/g
  tissue uptake at 48 h: 2.47 ± 0.67 %ID/g
[15]
  tissue uptake at 4 h: 6.79 ± 0.84 %ID/g
  tissue uptake at 24 h: 3.38 ± 0.89 %ID/g
  tissue uptake at 48 h: 1.47 ± 0.05 %ID/g
[16]
  tissue uptake at 4 h: 15.7 ± 1.2 %ID/g
  tissue uptake at 24 h: 8.88 ± 0.26 %ID/g
  tissue uptake at 48 h: 5.11 ± 0.63 %ID/g
[17]
  tissue uptake at 4 h: 0.07 ± 0.01 %ID/g
  tissue uptake at 24 h: 0.05 ± 0.01 %ID/g
  tissue uptake at 48 h: 0.05 %ID/g
[18]
  tissue uptake at 4 h: 46.6 ± 2.2 %ID/g
  tissue uptake at 24 h: 23 ± 4.32 %ID/g
  tissue uptake at 48 h: 7.85 ± 0.94 %ID/g
[19]
  tissue uptake at 4 h: 0.81 ± 0.06 %ID/g
  tissue uptake at 24 h: 0.56 ± 0.07 %ID/g
  tissue uptake at 48 h: 0.4 ± 0.03 %ID/g
[20]
  tissue uptake at 4 h: 14.6 ± 1.85 %ID/g
  tissue uptake at 24 h: 8.03 ± 1.43 %ID/g
  tissue uptake at 48 h: 3.27 ± 0.34 %ID/g
